Source: patent US20070184519A1 (published 2007)

Tests used:
HLA-DR DRB1*0101 = HLA-DR DRB1*0101 (human); experiment: competition with 125I probe, purified MHC II
HLA-DR DRB3*0101 = HLA-DR DRB3*0101 (human); experiment: competition with 125I probe, purified MHC II
HLA-DR DRB4*0101 = HLA-DR DRB4*0101 (human); experiment: competition with 125I probe, purified MHC II
HLA-DR DRB1*0401 = HLA-DR DRB1*0401 (human); experiment: competition with 125I probe, purified MHC II
HLA-DR DRB1*0802 = HLA-DR DRB1*0802 (human); experiment: competition with 125I probe, purified MHC II
DRB1*0301 = DRB1*0301 (human, UniProt P01903 26-216, limits assumed); experiment: competition vs 125I probe peptide, purified MHC II
DRB1*0802 = DRB1*0802 (human, UniProt P01903 26-216, limits assumed); experiment: competition vs 125I probe peptide, purified MHC II
DRB1*0101 = DRB1*0101 (human, UniProt P01903 26-216, limits assumed); experiment: competition vs 125I probe peptide, purified MHC II
DRB1*0401 = DRB1*0401 (human, UniProt P01903 26-216, limits assumed); experiment: competition vs 125I probe peptide, purified MHC II
DRB1*0404 = DRB1*0404 (human, UniProt P01903 26-216, limits assumed); experiment: competition vs 125I probe peptide, purified MHC II
DRB1*1101 [1] = biological target: DRB1*1101 (human, UniProt P01903 26-216, limits assumed); experiment: competition vs 125I probe peptide, purified MHC II
DRB5*0101 = DRB5*0101 (human, UniProt P01903 26-216, limits assumed); experiment: competition vs 125I probe peptide, purified MHC II
DRB1*0701 = DRB1*0701 (human, UniProt P01903 26-216, limits assumed); experiment: competition vs 125I probe peptide, purified MHC II
DRB1*1302 [2] = biological target: DRB1*1302 (human, UniProt P01903 26-216, limits assumed); experiment: competition vs 125I probe peptide, purified MHC II
DRB4*0101 = DRB4*0101 (human, UniProt P01903 26-216, limits assumed); experiment: competition vs 125I probe peptide, purified MHC II
DRB1*0405 = DRB1*0405 (human, UniProt P01903 26-216, limits assumed); experiment: competition vs 125I probe peptide, purified MHC II
DRB1*0901 [3] = biological target: DRB1*0901 (human, UniProt P01903 26-216, limits assumed); experiment: competition vs 125I probe peptide, purified MHC II
[4] = biological target: HLA-DR molecule DRB1*0404 (human); experiment: competition vs 125I probe, purified HLA
[5] = biological target: HLA-DR molecule DRB1*1101 (human); experiment: competition vs 125I probe, purified HLA
[6] = biological target: HLA-DR molecule DRB1*1302 (human); experiment: competition vs 125I probe, purified HLA
[7] = biological target: HLA-DR molecule DRB4*0101 (human); experiment: competition vs 125I probe, purified HLA
[8] = biological target: HLA-DR molecule DRB5*0101 (human); experiment: competition vs 125I probe, purified HLA
[9] = biological target: HLA-DR molecule DRB1*0101 (human); experiment: competition vs 125I probe, purified HLA
[10] = biological target: HLA-DR molecule DRB1*0405 (human); experiment: competition vs 125I probe, purified HLA
[11] = biological target: HLA-DR molecule DRB1*0802 (human); experiment: competition vs 125I probe, purified HLA
[12] = biological target: HLA-DR molecule DRB1*0401 (human); experiment: competition vs 125I probe, purified HLA
[13] = biological target: HLA-DR molecule DRB1*0701 (human); experiment: competition vs 125I probe, purified HLA
[14] = biological target: HLA-DR molecule DRB1*0901 (human); experiment: competition vs 125I probe, purified HLA
[15] = biological target: HLA-DR molecule DRB1*0301 (human); experiment: competition vs 125I probe, purified HLA
DRB1*0901 [16] = biological target: DRB1*0901 (human, UniProt P01903 26-216, limits assumed); experiment: inhibition of 125I-labelled probe peptide binding to purified HLA class II
DRB1*1101 [17] = biological target: DRB1*1101 (human, UniProt P01903 26-216, limits assumed); experiment: as above
DRB1*1302 [18] = biological target: DRB1*1302 (human, UniProt P01903 26-216, limits assumed); experiment: as above
HLA-DR DRB1*0405 (human) = biological target: T1, HLA-DR DRB1*0405 (human); experiment: competition with 125I probe, purified MHC II
T1 chain 1: not shown
T1 chain 2: not shown

[19] = biological target: HLA-DR molecule DRB1*0901 (DR9) (human); experiment: inhibition of radiolabelled probe peptide binding to purified MHC class II
[20] = biological target: HLA-DR molecule DRB1*1302 (DR6w19) (human); experiment: as above
[21] = biological target: HLA-DR molecule DRB1*1101 (DR5w11) (human); experiment: as above
[22] = biological target: HLA-DR molecule DRB4*0101 (DRw53) (human); experiment: as above
[23] = biological target: HLA-DR molecule DRB5*0101 (DR2w2a) (human); experiment: as above
HLA-DR DRB5*0101 = HLA-DR DRB5*0101 (human); experiment: competition with 125I probe, purified MHC II

B1: Torp. Ach Rec. 195-212 (peptide)
peptide: DTPYLDITYHFVMQRLPL
- IC50 (HLA-DR DRB1*0101): 385 nM
- IC50 (HLA-DR DRB3*0101): 800 nM
- IC50 (HLA-DR DRB4*0101): 261 nM
- IC50 (HLA-DR DRB1*0401): 160 nM
- IC50 (HLA-DR DRB1*0802): 555 nM

B2: DTFRKLDRVYSNFLR (peptide)
peptide: DTFRKLDRVYSNFLR
- IC50 (DRB1*0301): 2810 nM
- IC50 (DRB1*0802): 87 nM

B3: DTFRKNFRVYSNFLR (peptide)
peptide: DTFRKNFRVYSNFLR
- IC50 (DRB1*0101): 62 nM
- IC50 (DRB1*0401): 91 nM
- IC50 (DRB1*0404): 922 nM
- IC50 (DRB1*1101 [1]): 5 nM

B4: DTFRKQFRVYSNFLR (peptide)
peptide: DTFRKQFRVYSNFLR
- IC50 (DRB5*0101): 4.9 nM
- IC50 (DRB1*0404): 270 nM
- IC50 (DRB1*0701): 3000 nM
- IC50 (DRB1*0802): 81 nM

B5: DTGRKLFRVYSNFLR (peptide)
peptide: DTGRKLFRVYSNFLR
- IC50 (DRB1*1302 [2]): 7.5 nM
- IC50 (DRB1*0401): 46 nM
- IC50 (DRB1*0404): 175 nM
- IC50 (DRB1*0701): 312 nM
- IC50 (DRB1*0802): 53 nM

B6: DTKRKLFRVYSNFLR (peptide)
peptide: DTKRKLFRVYSNFLR
- IC50 (DRB1*0101): 13 nM
- IC50 (DRB1*1302 [2]): 4.9 nM
- IC50 (DRB4*0101): 738 nM
- IC50 (DRB1*0301): 6490 nM

B7: DTFRKLFRVYSNFGR (peptide)
peptide: DTFRKLFRVYSNFGR
- IC50 (DRB1*0401): 50 nM

B8: DTPRKLFRVYSNFLR (peptide)
peptide: DTPRKLFRVYSNFLR
- IC50 (DRB1*0101): 13 nM
- IC50 (DRB4*0101): 418 nM
- IC50 (DRB1*0401): 40 nM
- IC50 (DRB1*0405): 6.9 nM
- IC50 (DRB1*0701): 87 nM
- IC50 (DRB1*0901 [3]): 28 nM

B9: DTFRKLFRVYSNDLR (peptide)
peptide: DTFRKLFRVYSNDLR
- IC50 (DRB1*0404): 812 nM
- IC50 (DRB1*0405): 487 nM
- IC50 (DRB1*0701): 817 nM

B10: EPO 101 analog GLRSLGTLLRALGAQ (peptide)
peptide: GLRSLGTLLRALGAQ
- IC50 [4]: 13 nM
- IC50 [5]: 1.4 nM
- IC50 [6]: 739 nM
- IC50 [7]: 473 nM
- IC50 [8]: 13 nM

B11: EPO 101 analog GLRSLTTLLGALGAQ (peptide)
peptide: GLRSLTTLLGALGAQ
- IC50 [9]: 1.3 nM

B12: EPO 101 analog GLRSLTTLPRALGAQ (peptide)
peptide: GLRSLTTLPRALGAQ
- IC50 [4]: 13 nM
- IC50 [10]: 524 nM
- IC50 [11]: 7.3 nM
- IC50 [5]: 0.62 nM
- IC50 [7]: 112 nM
- IC50 [8]: 2.8 nM

B13: EPO 101 analog GLRSLTTRLRALGAQ (peptide)
peptide: GLRSLTTRLRALGAQ
- IC50 [9]: 2.4 nM
- IC50 [12]: 211 nM
- IC50 [13]: 4370 nM

B14: EPO 101 analog GLRSLTTLLDALGAQ (peptide)
peptide: GLRSLTTLLDALGAQ
- IC50 [4]: 9.3 nM
- IC50 [11]: 240 nM

B15: EPO 101 analog GLRSLTTLSRALGAQ (peptide)
peptide: GLRSLTTLSRALGAQ
- IC50 [4]: 13 nM
- IC50 [10]: 719 nM
- IC50 [14]: 2230 nM
- IC50 [5]: 1.4 nM
- IC50 [6]: 440 nM

B16: EPO 101 analog GLRSLTTLNRALGAQ (peptide)
peptide: GLRSLTTLNRALGAQ
- IC50 [12]: 28 nM
- IC50 [14]: 337 nM
- IC50 [5]: 0.97 nM
- IC50 [7]: 167 nM
- IC50 [8]: 0.89 nM

B17: EPO 101 analog GLRSLTTLTRALGAQ (peptide)
peptide: GLRSLTTLTRALGAQ
- IC50 [12]: 394 nM
- IC50 [5]: 3 nM
- IC50 [8]: 13 nM

B18: EPO 101 analog GLRSLTTLARALGAQ (peptide)
peptide: GLRSLTTLARALGAQ
- IC50 [15]: 234 nM
- IC50 [4]: 13 nM
- IC50 [11]: 7.1 nM
- IC50 [5]: 0.93 nM
- IC50 [6]: 610 nM

B19: DTFRKLFRVYSNDLR (peptide)
peptide: DTFRKLFRVYSNDLR
- IC50 (DRB1*0901 [16]): 1640 nM
- IC50 (DRB1*1101 [17]): 3.6 nM
- IC50 (DRB1*1302 [18]): 66 nM

B20: HBV Pre S1 21-47 (peptide)
peptide: PLGFFPDHQLDPAFGANSNNPDWDFNP
modifications: not checked
- IC50 (HLA-DR DRB1*0405 (human)): 31 nM

B21: DTFRKLFRVYSNFGR (peptide)
peptide: DTFRKLFRVYSNFGR
- IC50 (DRB1*1101 [17]): 2.8 nM

B22: EPO 101 analog peptide GLRSLTTLLDALGAQ (SEQ ID NO: 193) (peptide)
peptide: GLRSLTTLLDALGAQ
- IC50 [19]: 277 nM
- IC50 [20]: 953 nM

B23: EPO 101 analog peptide GLRSLTTLLGALGAQ (SEQ ID NO: 194) (peptide)
peptide: GLRSLTTLLGALGAQ
- IC50 [21]: 2.6 nM
- IC50 [20]: 858 nM
- IC50 [22]: 13 nM
- IC50 [23]: 294 nM

B24: NP7 (TPO Y535-551) (peptide)
peptide: YLDPLIRGLLARPAKLQV
- IC50 (HLA-DR DRB1*0101): 1.6 nM
- IC50 (HLA-DR DRB4*0101): 341 nM
- IC50 (HLA-DR DRB5*0101): 476 nM
- IC50 (HLA-DR DRB1*0401): 687 nM

B25: EPO 101 analog peptide GLRSLTTRLRALGAQ (SEQ ID NO: 192) (peptide)
peptide: GLRSLTTRLRALGAQ
- IC50 [21]: 0.79 nM
- IC50 [23]: 13 nM
